From PMC12623744 (Scientific Reports, 2025)
Positions of bridges follow the written chain, without caps; N, C: chain ends. Non-standard residues stand in square brackets, D forms with d. Nle = CCCC[C@H](N)C(=O)O

T1: HVEM-His protein (UniProt Q92956 39-202, labelled with RED-tris-NTA 2nd Generation dye on the His tag (spectral shift only))
T1 construct: Herpes virus entry mediator (HVEM); No catalogue number printed; also called herpes virus entry mediator; source: bought: ACROBiosystems
T1 sequence (looked up): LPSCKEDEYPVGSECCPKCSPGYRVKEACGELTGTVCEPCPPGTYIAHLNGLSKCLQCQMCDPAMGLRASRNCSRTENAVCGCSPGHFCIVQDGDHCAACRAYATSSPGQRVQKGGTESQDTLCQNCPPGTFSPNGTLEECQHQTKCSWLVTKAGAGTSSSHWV

B1: light2 (peptide)
peptide: Ac-ECGEEVVVRVLDERLVRLRDGTRSYFGAFCV-NH2
modifications: disulfide 2-30
SMILES: CC(=O)N[C@@H](CCC(=O)O)C(=O)N[C@H]1CSSC[C@@H](C(=O)N[C@H](C(N)=O)C(C)C)NC(=O)[C@H](Cc2ccccc2)NC(=O)[C@H](C)NC(=O)CNC(=O)[C@H](Cc2ccccc2)NC(=O)[C@H](Cc2ccc(O)cc2)NC(=O)[C@H](CO)NC(=O)[C@H](CCCNC(=N)N)NC(=O)[C@H]([C@@H](C)O)NC(=O)CNC(=O)[C@H](CC(=O)O)NC(=O)[C@H](CCCNC(=N)N)NC(=O)[C@H](CC(C)C)NC(=O)[C@H](CCCNC(=N)N)NC(=O)[C@H](C(C)C)NC(=O)[C@H](CC(C)C)NC(=O)[C@H](CCCNC(=N)N)NC(=O)[C@H](CCC(=O)O)NC(=O)[C@H](CC(=O)O)NC(=O)[C@H](CC(C)C)NC(=O)[C@H](C(C)C)NC(=O)[C@H](CCCNC(=N)N)NC(=O)[C@H](C(C)C)NC(=O)[C@H](C(C)C)NC(=O)[C@H](C(C)C)NC(=O)[C@H](CCC(=O)O)NC(=O)[C@H](CCC(=O)O)NC(=O)CNC1=O
notes: Fragment 210-240 of LIGHT with two residues substituted by cysteines for a disulfide bond; also called peptide 2; source: synthetic peptide (SPPS, RP-HPLC; disulfide bond formed by air oxidation)
B2: light1 (peptide)
peptide: Ac-EAGEEVVCRVLDERLVRLRDGTRSYCGAF[Nle]V-NH2
modifications: disulfide 8-26
SMILES: CCCC[C@H](NC(=O)[C@H](Cc1ccccc1)NC(=O)[C@H](C)NC(=O)CNC(=O)[C@@H]1CSSC[C@H](NC(=O)[C@@H](NC(=O)[C@@H](NC(=O)[C@H](CCC(=O)O)NC(=O)[C@H](CCC(=O)O)NC(=O)CNC(=O)[C@H](C)NC(=O)[C@H](CCC(=O)O)NC(C)=O)C(C)C)C(C)C)C(=O)N[C@@H](CCCNC(=N)N)C(=O)N[C@@H](C(C)C)C(=O)N[C@@H](CC(C)C)C(=O)N[C@@H](CC(=O)O)C(=O)N[C@@H](CCC(=O)O)C(=O)N[C@@H](CCCNC(=N)N)C(=O)N[C@@H](CC(C)C)C(=O)N[C@@H](C(C)C)C(=O)N[C@@H](CCCNC(=N)N)C(=O)N[C@@H](CC(C)C)C(=O)N[C@@H](CCCNC(=N)N)C(=O)N[C@@H](CC(=O)O)C(=O)NCC(=O)N[C@@H]([C@@H](C)O)C(=O)N[C@@H](CCCNC(=N)N)C(=O)N[C@@H](CO)C(=O)N[C@@H](Cc2ccc(O)cc2)C(=O)N1)C(=O)N[C@H](C(N)=O)C(C)C
notes: Fragment 210-240 of LIGHT with two residues substituted by cysteines for a disulfide bond; the synthesized peptide has norleucine there; also called peptide 1; source: synthetic peptide (SPPS, RP-HPLC; disulfide bond formed by air oxidation)
B3: light3 (peptide)
peptide: Ac-TCTHGLYKRTPRYPEELELLVSQCS-NH2
modifications: disulfide 2-24
SMILES: CC(=O)N[C@H](C(=O)N[C@H]1CSSC[C@@H](C(=O)N[C@@H](CO)C(N)=O)NC(=O)[C@H](CCC(N)=O)NC(=O)[C@H](CO)NC(=O)[C@H](C(C)C)NC(=O)[C@H](CC(C)C)NC(=O)[C@H](CC(C)C)NC(=O)[C@H](CCC(=O)O)NC(=O)[C@H](CC(C)C)NC(=O)[C@H](CCC(=O)O)NC(=O)[C@H](CCC(=O)O)NC(=O)[C@@H]2CCCN2C(=O)[C@H](Cc2ccc(O)cc2)NC(=O)[C@H](CCCNC(=N)N)NC(=O)[C@@H]2CCCN2C(=O)[C@H]([C@@H](C)O)NC(=O)[C@H](CCCNC(=N)N)NC(=O)[C@H](CCCCN)NC(=O)[C@H](Cc2ccc(O)cc2)NC(=O)[C@H](CC(C)C)NC(=O)CNC(=O)[C@H](Cc2c[nH]cn2)NC(=O)[C@H]([C@@H](C)O)NC1=O)[C@@H](C)O
notes: Residues 161-185 of LIGHT with two residues substituted by cysteines for a disulfide bond; also called peptide 3; source: synthetic peptide (SPPS, RP-HPLC; disulfide bond formed by air oxidation)
B4: light3_E178L (peptide)
peptide: Ac-TCTHGLYKRTPRYPEELLLLVSQCS-NH2
modifications: disulfide 2-24
SMILES: CC(=O)N[C@H](C(=O)N[C@H]1CSSC[C@@H](C(=O)N[C@@H](CO)C(N)=O)NC(=O)[C@H](CCC(N)=O)NC(=O)[C@H](CO)NC(=O)[C@H](C(C)C)NC(=O)[C@H](CC(C)C)NC(=O)[C@H](CC(C)C)NC(=O)[C@H](CC(C)C)NC(=O)[C@H](CC(C)C)NC(=O)[C@H](CCC(=O)O)NC(=O)[C@H](CCC(=O)O)NC(=O)[C@@H]2CCCN2C(=O)[C@H](Cc2ccc(O)cc2)NC(=O)[C@H](CCCNC(=N)N)NC(=O)[C@@H]2CCCN2C(=O)[C@H]([C@@H](C)O)NC(=O)[C@H](CCCNC(=N)N)NC(=O)[C@H](CCCCN)NC(=O)[C@H](Cc2ccc(O)cc2)NC(=O)[C@H](CC(C)C)NC(=O)CNC(=O)[C@H](Cc2c[nH]cn2)NC(=O)[C@H]([C@@H](C)O)NC1=O)[C@@H](C)O
notes: Analogue of light3 (residues 161-185 of LIGHT with two cysteines for a disulfide bond) in which glutamic acid 178 was replaced by leucine; source: synthetic peptide (SPPS, RP-HPLC; disulfide bond formed by air oxidation)

Target: T1, HVEM-His protein
Assay: spectral shift (SpS); Monolith X; HVEM-His labelled with His-Tag Labeling Kit RED-tris-NTA 2nd Generation, final 50 nM; peptides 2 µM to 6.1 pM; PBS-T (0.05% Tween-20, 0.3 M NaCl, pH 7.4); fluorescence ratio 670/650 nm; 25 °C; apparent Kd (peptides aggregated at higher concentrations)
Conditions: both partners purified

Kd [nM] | Binder
1380 | B1
1680 | B2
580 | B3
710 | B4
